Data taken from publication PMC3834835, “Crystal structure of RuvC resolvase in complex with Holliday junction substrate” (Nucleic Acids Research, 2013).

Legend:
[1] = target: Tt-RuvC as crystallised in complex with a synthetic Holliday junction (T. thermophilus) (UniProt Q5SJC4); experiment: crystal structure; Tt-RuvC with synthetic Holliday junction (oligonucleotides J221 and J222), crystals from 0.3-0.5 M ammonium phosphate; molecular replacement, 3.75 Å; asymmetric unit holds a RuvC dimer and one HJ
[2] = target: the molecule itself; experiment: crystal structure; apo Tt-RuvC, crystals from 0.1 M citric acid (pH 3.5) and 1.5 M NaCl; SAD, 1.35 Å; asymmetric unit holds a RuvC dimer
[3] = target: T1, Tt-RuvC E70Q M108C (Thermus thermophilus, UniProt Q5SJC4 1-166, E70Q;M108C); experiment: site-specific thiol cross-linking; 5 mM Mg2+, 100 mM KCl; Cross-linking: 100 mM NaCl, 10 mM HEPES pH 7.0, 0.5 mM DTT, 15% glycerol, 5 mM MgCl2 (+100 mM KCl for backbone thiols), protein:DNA 1:1, 37 C 2.5 h then 25 C overnight; conditions: protein: recombinant; tags: N-terminal His-tag; chain copies: 2; Holliday junction of 4 strands, immobile
T1 sequence: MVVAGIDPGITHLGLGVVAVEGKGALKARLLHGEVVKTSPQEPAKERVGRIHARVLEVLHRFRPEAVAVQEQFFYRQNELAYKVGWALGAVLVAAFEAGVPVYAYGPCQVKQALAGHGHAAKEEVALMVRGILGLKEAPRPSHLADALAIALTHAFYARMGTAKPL

[4] = target: T2, Tt-RuvC E70Q T11C (Thermus thermophilus, UniProt Q5SJC4 1-166, E70Q;T11C); experiment: site-specific thiol cross-linking; 5 mM Mg2+, 100 mM KCl; most efficient; Cross-linking: 100 mM NaCl, 10 mM HEPES pH 7.0, 0.5 mM DTT, 15% glycerol, 5 mM MgCl2 (+100 mM KCl for backbone thiols), protein:DNA 1:1, 37 C 2.5 h then 25 C overnight; conditions: protein: recombinant; tags: N-terminal His-tag; chain copies: 2; Holliday junction of 4 strands, immobile
T2 sequence: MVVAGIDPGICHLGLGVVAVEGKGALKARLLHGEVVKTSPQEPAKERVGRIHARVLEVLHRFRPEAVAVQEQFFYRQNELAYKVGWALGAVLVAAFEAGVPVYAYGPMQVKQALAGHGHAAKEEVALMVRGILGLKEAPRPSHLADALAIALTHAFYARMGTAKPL

[5] = target: T3, Tt-RuvC E70Q P40C (Thermus thermophilus, UniProt Q5SJC4 1-166, E70Q;P40C); experiment: as above; conditions: protein: recombinant; tags: N-terminal His-tag; chain copies: 2; Holliday junction of 4 strands, immobile
T3 sequence: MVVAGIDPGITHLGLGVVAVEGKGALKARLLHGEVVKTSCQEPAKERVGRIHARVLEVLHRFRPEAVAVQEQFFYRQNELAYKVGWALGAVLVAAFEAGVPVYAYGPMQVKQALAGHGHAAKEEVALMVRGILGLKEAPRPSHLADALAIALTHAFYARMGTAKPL

[6] = target: T2, Tt-RuvC E70Q T11C; experiment: site-specific thiol cross-linking; 5 mM Mg2+, 100 mM KCl; single modification; Cross-linking: 100 mM NaCl, 10 mM HEPES pH 7.0, 0.5 mM DTT, 15% glycerol, 5 mM MgCl2 (+100 mM KCl for backbone thiols), protein:DNA 1:1, 37 C 2.5 h then 25 C overnight; conditions: protein: recombinant; tags: N-terminal His-tag; chain copies: 2; Holliday junction of 4 strands
[7] = target: T4, Tt-RuvC E70Q R140C (Thermus thermophilus, UniProt Q5SJC4 1-166, E70Q;R140C); experiment: site-specific thiol cross-linking; 5 mM Mg2+, 100 mM KCl; Cross-linking: 100 mM NaCl, 10 mM HEPES pH 7.0, 0.5 mM DTT, 15% glycerol, 5 mM MgCl2 (+100 mM KCl for backbone thiols), protein:DNA 1:1, 37 C 2.5 h then 25 C overnight; conditions: protein: recombinant; tags: N-terminal His-tag; chain copies: 2; Holliday junction of 4 strands, immobile
T4 sequence: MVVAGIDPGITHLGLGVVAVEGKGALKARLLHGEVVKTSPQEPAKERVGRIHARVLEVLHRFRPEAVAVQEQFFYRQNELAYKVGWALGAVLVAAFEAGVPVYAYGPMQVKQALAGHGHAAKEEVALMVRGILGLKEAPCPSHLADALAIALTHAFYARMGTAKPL

[8] = target: T3, Tt-RuvC E70Q P40C; experiment: site-specific thiol cross-linking; 5 mM Mg2+, 100 mM KCl; single modification; Cross-linking: 100 mM NaCl, 10 mM HEPES pH 7.0, 0.5 mM DTT, 15% glycerol, 5 mM MgCl2 (+100 mM KCl for backbone thiols), protein:DNA 1:1, 37 C 2.5 h then 25 C overnight; conditions: protein: recombinant; tags: N-terminal His-tag; chain copies: 2; Holliday junction of 4 strands
[9] = target: T5, Tt-RuvC E70Q (Thermus thermophilus, UniProt Q5SJC4 1-166, E70Q); experiment: X-ray crystallography (3.75 A); 0.3-0.5 M ammonium phosphate; Cross-linking: 100 mM NaCl, 10 mM HEPES pH 7.0, 0.5 mM DTT, 15% glycerol, 5 mM MgCl2 (+100 mM KCl for backbone thiols), protein:DNA 1:1, 37 C 2.5 h then 25 C overnight; conditions: protein: recombinant; tags: none (N-terminal His-tag removed with PreScission protease); chain copies: 2; Holliday junction of 2 strands, TTT loops on two arms
T5 sequence: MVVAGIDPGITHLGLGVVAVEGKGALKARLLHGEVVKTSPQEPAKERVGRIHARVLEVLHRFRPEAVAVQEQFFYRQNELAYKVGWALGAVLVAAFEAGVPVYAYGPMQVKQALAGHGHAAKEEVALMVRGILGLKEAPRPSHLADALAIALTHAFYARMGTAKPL

[10] = target: T6, Tt-RuvC E70Q L80C (Thermus thermophilus, UniProt Q5SJC4 1-166, E70Q;L80C); experiment: site-specific thiol cross-linking; 5 mM Mg2+; Cross-linking: 100 mM NaCl, 10 mM HEPES pH 7.0, 0.5 mM DTT, 15% glycerol, 5 mM MgCl2 (+100 mM KCl for backbone thiols), protein:DNA 1:1, 37 C 2.5 h then 25 C overnight; conditions: protein: recombinant, tags: N-terminal His-tag, chain copies: 2, Holliday junction of 2 strands, TTT loops
T6 sequence: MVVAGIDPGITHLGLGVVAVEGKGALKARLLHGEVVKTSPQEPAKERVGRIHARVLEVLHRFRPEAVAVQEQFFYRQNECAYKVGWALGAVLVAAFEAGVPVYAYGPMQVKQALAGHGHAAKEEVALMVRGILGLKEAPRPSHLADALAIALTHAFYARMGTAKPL

[11] = target: T7, Tt-RuvC E70Q Q77C (Thermus thermophilus, UniProt Q5SJC4 1-166, E70Q;Q77C); experiment: site-specific thiol cross-linking; 5 mM Mg2+; high efficiency; Cross-linking: 100 mM NaCl, 10 mM HEPES pH 7.0, 0.5 mM DTT, 15% glycerol, 5 mM MgCl2 (+100 mM KCl for backbone thiols), protein:DNA 1:1, 37 C 2.5 h then 25 C overnight; conditions: protein: recombinant; tags: N-terminal His-tag; chain copies: 2; Holliday junction of 2 strands, TTT loops, 2 bp homology core
T7 sequence: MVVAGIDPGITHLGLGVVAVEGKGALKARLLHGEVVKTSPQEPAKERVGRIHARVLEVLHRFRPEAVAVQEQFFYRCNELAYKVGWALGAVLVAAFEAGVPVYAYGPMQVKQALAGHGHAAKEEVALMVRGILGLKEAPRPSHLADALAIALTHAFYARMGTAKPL

[12] = target: T8, Tt-RuvC E70Q R76C (Thermus thermophilus, UniProt Q5SJC4 1-166, E70Q;R76C); experiment: as above; conditions: protein: recombinant; tags: N-terminal His-tag; chain copies: 2; Holliday junction of 2 strands, TTT loops, 2 bp homology core
T8 sequence: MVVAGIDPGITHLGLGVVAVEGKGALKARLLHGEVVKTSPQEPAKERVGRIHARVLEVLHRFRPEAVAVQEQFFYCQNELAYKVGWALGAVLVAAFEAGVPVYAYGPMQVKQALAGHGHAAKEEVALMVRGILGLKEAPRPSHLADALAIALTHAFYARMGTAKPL

Tt-RuvC as crystallised in complex with a synthetic Holliday junction (from UniProt Q5SJC4 1-166) (enzyme)
stoichiometry N [1]: 2

B1: RuvC protein from T. thermophilus (Tt-RuvC), unliganded (apo) crystal form (enzyme)
chain: MVVAGIDPGITHLGLGVVAVEGKGALKARLLHGEVVKTSPQEPAKERVGRIHARVLEVLHRFRPEAVAVEEQFFYRQNELAYKVGWALGAVLVAAFEAGVPVYAYGPMQVKQALAGHGHAAKEEVALMVRGILGLKEAPRPSHLADALAIALTHAFYARMGTAKPL
modifications: selenomethionine-substituted protein (SAD data)
notes: RuvC Holliday junction resolvase, Thermus thermophilus; No PDB id is printed for the apo structure; also called apo Tt-RuvC; RuvC resolvase; source: E. coli, purified (nickel column, tag cleavage, Mono-S column)
stoichiometry N [2]: 2

B2: HJ-28bb (structured_DNA)
DNA 1: GACGGCCTCGCAATCGACTATGACCGAGCACGCGAGATGT
DNA 2: ACATCTCGCGTGCTCGGTCATTCTGCAGATGCGGAGTGAA
DNA 3: TTCACTCCGCATCTGCAGATTCTGGCTGTGGCGTGTTTCT
DNA 4: AGAAACACGCCACAGCCAGAAAGTCGATTGCGAGGCCGTC
modifications: thiol tether on phosphate after nt 24 of strands 2 and 4
binding result [3]: binds
binding result [4]: binds

B3: HJ-29bb (structured_DNA)
DNA 1: GACGGCCTCGCAATCAGCTATGACCGAGCACGCGAGATGT
DNA 2: ACATCTCGCGTGCTCGGTCATTCGTCAGATGCGGAGTGAA
DNA 3: TTCACTCCGCATCTGACGATTCTGGCTGTGGCGTGTTTCT
DNA 4: AGAAACACGCCACAGCCAGAAAGCTGATTGCGAGGCCGTC
modifications: thiol tether on phosphate after nt 25 of strands 2 and 4
binding result [3]: binds
binding result [5]: binds

B4: HJ-29bb-h (structured_DNA)
DNA 1: GACGGCCTCGCAATCAGCTATGACCGAGCACGCGAGATGT
DNA 2: ACATCTCGCGTGCTCGGTCATTCTGCAGATGCGGAGTGAA
DNA 3: TTCACTCCGCATCTGACGATTCTGGCTGTGGCGTGTTTCT
DNA 4: AGAAACACGCCACAGCCAGAAAGCTGATTGCGAGGCCGTC
modifications: thiol tether on phosphate after nt 25 of strand 4 only; the table lists one shared single B strand (S19) for HJ-28/29
binding result [6]: binds

B5: HJ-3bb (structured_DNA)
DNA 1: GACGGCCTCGCATTCGGCTATGACCGAGCACGCGAGATGT
DNA 2: ACATCTCGCGTGCTCGGTCATTCGGCAAGTGCGGAGTGAA
DNA 3: TTCACTCCGCACTTGCCGATTCTGGCTGTGGCGTGTTTCT
DNA 4: AGAAACACGCCACAGCCAGAAAGCCGAATGCGAGGCCGTC
modifications: thiol tether on phosphate after nt 13 of strands 1 and 3
binding result [7]: binds

B6: HJ-28bb-h (structured_DNA)
DNA 1: GACGGCCTCGCAATCGACTATGACCGAGCACGCGAGATGT
DNA 2: ACATCTCGCGTGCTCGGTCATTCTGCAGATGCGGAGTGAA
DNA 3: TTCACTCCGCATCTGCAGATTCTGGCTGTGGCGTGTTTCT
DNA 4: AGAAACACGCCACAGCCAGAAAGTCGATTGCGAGGCCGTC
modifications: thiol tether on phosphate after nt 24 of strand 4 only
binding result [8]: binds

B7: HJ J221/J222 (structured_DNA)
DNA 1: CAATCGGCTTTGACCTTTGGTCAATCGGCAGAT
DNA 2: ATCTGCCGATTCTGGTTTCCAGAAAGCCGATTG
binding result [9]: binds

B8: HJ-26-h (structured_DNA)
DNA 1: CAATCGGCTATGACCTTTGGTCATTGGGCAGAT
DNA 2: ATCTGCCCATTCTGGTTTCCACAAAGCCGATTG
modifications: thiol on guanine 26 of one strand
binding result [10]: binds

B9: HJ-8-h (structured_DNA)
DNA 1: CAATCGGGTATGACCTTTGGTCATTCGGCAGAT
DNA 2: ATCTGCCGATTCTGGTTTCTAGAAACCCGATTG
modifications: thiol on guanine 8 of one strand
binding result [10]: binds

B10: HJ-25-h (structured_DNA)
DNA 1: CAATCGGCCAAGACCTTTGGTCTTGCGGCAGAT
DNA 2: ATCTGCCGCATATGGTTTCCAGATGGCCGATTG
modifications: thiol on guanine 25 of one strand
binding result ([10]; 2 bp homology core): binds

B11: HJ-25 (structured_DNA)
DNA 1: CAATCGGCCAAGACCTTTGGTCTTGCGGCAGAT
DNA 2: ATCTGCCGCATATGGTTTCCAGATGGCCGATTG
modifications: thiol (cysteamine) on position 2 of guanine 25 of both strands
binding result [11]: binds
binding result [12]: binds
